The experiment concerns the target T1, His-Ivy1 (recombinant wild-type Ivy1) (S. cerevisiae, UniProt Q04934 1-453).
T1 sequence: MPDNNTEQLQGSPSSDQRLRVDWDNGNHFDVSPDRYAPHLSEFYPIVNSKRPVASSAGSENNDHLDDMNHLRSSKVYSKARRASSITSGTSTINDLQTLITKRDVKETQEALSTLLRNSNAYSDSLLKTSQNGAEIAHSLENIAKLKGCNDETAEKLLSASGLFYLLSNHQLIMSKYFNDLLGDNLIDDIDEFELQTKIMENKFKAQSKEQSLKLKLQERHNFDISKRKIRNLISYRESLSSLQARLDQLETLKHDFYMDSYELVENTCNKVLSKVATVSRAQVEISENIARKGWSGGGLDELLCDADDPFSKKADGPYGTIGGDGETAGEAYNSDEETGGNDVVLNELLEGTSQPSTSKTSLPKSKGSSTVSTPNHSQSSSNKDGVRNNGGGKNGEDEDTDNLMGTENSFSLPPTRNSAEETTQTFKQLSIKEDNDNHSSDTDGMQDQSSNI
Briefly: pull-down.

Results on one molecule are retold here after article PMC5939101 (Proceedings of the National Academy of Sciences of the …, 2018).

B1: GST-Ypt7 (natural protein)
chain: MSSRKKNILKVIILGDSGVGKTSLMHRYVNDKYSQQYKATIGADFLTKEVTVDGDKVATMQVWDTAGQERFQSLGVAFYRGADCCVLVYDVTNASSFENIKSWRDEFLVHANVNSPETFPFVILGNKIDAEESKKIVSEKSAQELAKSLGDIPLFLTSAKNAINVDTAFEEIARSALQQNQADTEAFEDDYNDAINIRLDGENNSCSC
As for B1, the binding result was “binds”.
